This note sets out measurements from the supplement of paper PMC5998384.

Data set [1] deals with HeLa Kyoto. Briefly: solubility in G1/S (NP-40 vs SDS abundance) (log2 ratio); higher = more soluble. As to conditions: cell cycle stage: G1/S.
The test system of data set [2] is HeLa Kyoto. Briefly: melting temperature (median over replicates), in situ; higher = more thermally stable.
The test system of data set [3] is HeLa Kyoto. Put plainly: solubility change mitosis vs G1/S (difference of NP-40 vs SDS log2 ratios) (log2 ratio difference); higher = more soluble in mitosis.
Data set [4] has as its system HeLa Kyoto. Briefly: thermal stability score vs G1/S (z-score of summed log2 fold changes over temperatures); higher = more thermally stable than in G1/S.
Setting [5] is: cell cycle stage: early G1 (4.5 h after nocodazole release).
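Throughout, for melting temperature (median over replicates), in situ: HeLa Kyoto cells synchronized by double thymidine or nocodazole block, proteins quantified by TMT10plex mass spectrometry, three independent biological replicates.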
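Throughout, for solubility change mitosis vs G1/S (difference of NP-40 vs SDS log2 ratios): synchronized HeLa Kyoto cells (double thymidine block for G1/S, nocodazole release for mitosis), protein amounts in NP-40 versus SDS lysates quantified by mass spectrometry, three biological replicates.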
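Throughout, for solubility in G1/S (NP-40 vs SDS abundance): HeLa Kyoto cells arrested at G1/S by double thymidine block, proteins quantified by TMT10plex mass spectrometry in mild NP-40 versus SDS extracts, three biological replicates.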
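Throughout, for thermal stability score vs G1/S (z-score of summed log2 fold changes over temperatures): synchronized HeLa Kyoto cells, proteins quantified by TMT10plex mass spectrometry, three biological replicates, mitosis taken 0.5 h after nocodazole release, G1/S directly after double thymidine block.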

For “MGPLPRTVELFYDVLSPYSWLGFEILCRYQNIWNINLQLRPSLITGIMKDSGNKPPGLLPRKGLYMANDLKLLRHHLQIPIHFPKDFLSVMLEKGSLSAMRFLTAVNLEHPEMLEKASRELWMRVWSRNEDITEPQSILAAAEKAGMSAEQAQGLLEKIATPKVKNQLKETTEAACRYGAFGLPITVAHVDGQTHMLFGSDRMELLAHLLGEKWMGPIPPAVNARL [GSTK1]”, the “solubility in G1/S (log2)” value in the data set on HeLa Kyoto [1] worked out at 0.121. The melting temperature amounted to 50.9 °C in the data set on HeLa Kyoto [2] (cell cycle stage: G1/S) and 52 °C in the data set on HeLa Kyoto [2] (cell cycle stage: mitosis). The “solubility change mitosis (log2)” value with HeLa Kyoto [3] was -0.098. Also, the thermal stability score is -1.28 with HeLa Kyoto [4] (setting [5]) and -0.907 with HeLa Kyoto [4] (cell cycle stage: mitosis).
Take “MGQTVNEDSMDVKKENQEKTPQSSTSSVQRDDFHWEEYLKETGSISAPSECFRQSQIPPVNDFKVGMKLEARDPRNATSVCIATVIGITGARLRLRLDGSDNRNDFWRLVDSPDIQPVGTCEKEGDLLQPPLGYQMNTSSWPMFLLKTLNGSEMASATLFKKEPPKPPLNNFKVGMKLEAIDKKNPYLICPATIGDVKGDEVHITFDGWSGAFDYWCKYDSRDIFPAGWCRLTGDVLQPPGTSVPIVKNIAKTESSPSEASQHSMQSPQKTTLILPTQQVRRSSRIKPPGPTAVPKRSSSVKNITPRKKGPNSGKKEKPLPVICSTSAASLKSLTRDRGMLYKDVASGPCKIVMSTVCVYVNKHGNFGPHLDPKRIQQLPDHFGPGPVNVVLRRIVQACVDCALETKTVFGYLKPDNRGGEVITASFDGETHSIQLPPVNSASFALRFLENFCHSLQCDNLLSSQPFSSSRGHTHSSAEHDKNQSAKEDVTERQSTKRSPQQTVPYVVPLSPKLPKTKEYASEGEPLFAGGSAIPKEENLSEDSKSSSLNSGNYLNPACRNPMYIHTSVSQDFSRSVPGTTSSPLVGDISPKSSPHEVKFQMQRKSEAPSYIAVPDPSVLKQGFSKDPSTWSVDEVIQFMKHTDPQISGPLADLFRQHEIDGKALFLLKSDVMMKYMGLKLGPALKLCYYIEKLKEGKYS [SCML2]”: the “solubility in G1/S (log2)” value in the data set on HeLa Kyoto [1] is -0.0128. For the same sequence, the melting temperature came to 44.9 °C in the data set on HeLa Kyoto [2] (cell cycle stage: G1/S) and 49.1 °C in the data set on HeLa Kyoto [2] (cell cycle stage: mitosis). Further, the “solubility change mitosis (log2)” value in the data set with HeLa Kyoto [3] worked out at 0.137. Besides, the thermal stability score in the data set with HeLa Kyoto [4] (setting [5]) was 4.21; in the data set on HeLa Kyoto [4] (cell cycle stage: mitosis), 8.66.
“MGRAGAAAVIPGLALLWAVGLGSAAPSPPRLRLSFQELQAWHGLQTFSLERTCCYQALLVDEERGRLFVGAENHVASLNLDNISKRAKKLAWPAPVEWREECNWAGKDIGTECMNFVKLLHAYNRTHLLACGTGAFHPTCAFVEVGHRAEEPVLRLDPGRIEDGKGKSPYDPRHRAASVLVGEELYSGVAADLMGRDFTIFRSLGQRPSLRTEPHDSRWLNEPKFVKVFWIPESENPDDDKIYFFFRETAVEAAPALGRLSVSRVGQICRNDVGGQRSLVNKWTTFLKARLVCSVPGVEGDTHFDQLQDVFLLSSRDHRTPLLYAVFSTSSSIFQGSAVCVYSMNDVRRAFLGPFAHKEGPMHQWVSYQGRVPYPRPGMCPSKTFGTFSSTKDFPDDVIQFARNHPLMYNSVLPTGGRPLFLQVGANYTFTQIAADRVAAADGHYDVLFIGTDVGTVLKVISVPKGSRPSAEGLLLEELHVFEDSAAVTSMQISSKRHQLYVASRSAVAQIALHRCAAHGRVCTECCLARDPYCAWDGVACTRFQPSAKRRFRRQDVRNGDPSTLCSGDSSRPALLEHKVFGVEGSSAFLECEPRSLQARVEWTFQRAGVTAHTQVLAEERTERTARGLLLRRLRRRDSGVYLCAAVEQGFTQPLRRLSLHVLSATQAERLARAEEAAPAAPPGPKLWYRDFLQLVEPGGGGSANSLRMCRPQPALQSLPLESRRKGRNRRTHAPEPRAERGPRSATHW [SEMA3B]”: in the data set with HeLa Kyoto [1], the “solubility in G1/S (log2)” value was -0.625. Also, the results for the melting temperature in the data set with HeLa Kyoto [2] (cell cycle stage: G1/S) and in the data set with HeLa Kyoto [2] (cell cycle stage: mitosis) were 55.1 °C and 57.9 °C, respectively. For the same sequence, the “solubility change mitosis (log2)” value in the data set on HeLa Kyoto [3] was -0.384. Further, the thermal stability score in the data set on HeLa Kyoto [4] (setting [5]) came to 4.5; in the data set on HeLa Kyoto [4] (cell cycle stage: mitosis) it was 7.7.
As for “MGRLVAVGLLGIALALLGERLLALRNRLKASREVESVDLPHCHLIKGIEAGSEDIDILPNGLAFFSVGLKFPGLHSFAPDKPGGILMMDLKEEKPRARELRISRGFDLASFNPHGISTFIDNDDTVYLFVVNHPEFKNTVEIFKFEEAENSLLHLKTVKHELLPSVNDITAVGPAHFYATNDHYFSDPFLKYLETYLNLHWANVVYYSPNEVKVVAEGFDSANGINISPDDKYIYVADILAHEIHVLEKHTNMNLTQLKVLELDTLVDNLSIDPSSGDIWVGCHPNGQKLFVYDPNNPPSSEVLRIQNILSEKPTVTTVYANNGSVLQGSSVASVYDGKLLIGTLYHRALYCEL [PON2]”, the “solubility in G1/S (log2)” value with HeLa Kyoto [1] came to 0.315. Also, the melting temperature in the data set with HeLa Kyoto [2] (cell cycle stage: G1/S) and in the data set with HeLa Kyoto [2] (cell cycle stage: mitosis) was 53.6 °C throughout. Besides, in the data set on HeLa Kyoto [3], the “solubility change mitosis (log2)” value was -0.101. Further, the thermal stability score amounted to 4.83 in the data set on HeLa Kyoto [4] (setting [5]) and 4.5 in the data set on HeLa Kyoto [4] (cell cycle stage: mitosis).
